Experimental data from patent US20150252107A1, “APLNR Modulators and Uses Thereof” (Regeneron Pharmaceuticals, Inc., priority 2013, published 2015).
Substitutions are numbered along the chain they refer to. No end group written: not given here.

B1: H2aM9227N: anti-APLNR antibody, HCVR/LCVR SEQ ID NOs 50/58, mouse IgG2a Fc (antibody, V domains shown)
VH: EVQLVESGGGLVQPGGSLRLSCAASGFTFSSFWMSWVRQVPGKGLEWVANIKQDGSEKYYVDSVKGRFTISRDNAKNSLYLQMNSLRAEDTAVYYCARDRFGYSFYDKGVRYYYGMDVWGQGTTVTVSS
VL: DIQMTQSPSSLSVSVGDRVTITCRASQGIRNDLGWYQQKPGKAPKRLIYATSSLQSGVPSRFSGSGSGTEFTLTISGLQPEDFATYYCLQHNSYPRTFGQGTKVEIK
modifications: mouse IgG2a Fc
B2: H4H9101P: anti-APLNR antibody, HCVR/LCVR SEQ ID NOs 146/154, human IgG4 Fc (antibody, V domains shown)
VH: QVQLVQSGAEVKKPGASVEVSCKASGYTFTDYYIHWIRQAPGQGLEWMGWINPDSGRTNYAQKFQVRVTMTRDTSITTAYMELNRLKSDDTAVYYCARGPLRGYSGYDFFDYWGQGTLVTVSS
VL: DIQLTQSPSFLSASVGDRVTITCWASQGISSYLAWYQQKPGKAPKLLIYAASTLQSGVPSRFSGSGSGTEFTLTISSLQPEDFASYFCQQLNSNPRTFGQGTKVEIK
modifications: human IgG4 Fc
B3: H4H9103P: anti-APLNR antibody, HCVR/LCVR SEQ ID NOs 162/170, human IgG4 Fc (antibody, V domains shown)
VH: EVQLVESGGGLVQPGRSLRLSCAASGFTFDDYAMHWVRQVPGKGLEWVSGITWNSGDIGYADSVKGRFTISRDNAKNSLYLQMNSLRAEDTALYYCTKDKDSSGYYGIDVWGQGTTVTVSS
VL: DIQMTQSPSSVSASVGDRVTITCRASQGIRTWLAWYQQKPGKAPKLLIYAASSLQSGVPSRFSGSESGTDFTLTISSLQPEDFATYYCQQANSFPFTFGPGTKVDIK
modifications: human IgG4 Fc
B4: H4H9104P: anti-APLNR antibody, HCVR/LCVR SEQ ID NOs 178/186, human IgG4 Fc (antibody, V domains shown)
VH: QVQLVESGGDLVKPGGSLRLSCAASGFTFSDYYMNWIRQAPGKGLEWVSYISSSGSTIHYADSVKGRFTISRDNAKNLVYLRMNSLRAEDTAVYFCAREREVHDYSDPYFFFYGMDVWGQGTTVTVSS
VL: DIQMTQSPSSVSASVGDRVTITCRASQDVSSWLAWYQHKPGKAPKLLIFAASSLQSGVPSRFSGSGSGTDFTLTISSLQSEDFATYYCQQANSFPLTFGGGTKVEIK
modifications: human IgG4 Fc
B5: H4H9112P: anti-APLNR antibody, HCVR/LCVR SEQ ID NOs 194/202, human IgG4 Fc (antibody, V domains shown)
VH: B2 VH
VL: DIQMTQSPSSLSAFVGDRVTITCRASQSISSYLNWYQQKPGKAPKLLIYTASTLQRGVPSRFRGSGSGTDFTLTISSLQPEDFATYYCHQTYSIPITFGQGTRLEIK
modifications: human IgG4 Fc
B6: H4H9113P: anti-APLNR antibody, HCVR/LCVR SEQ ID NOs 210/218, human IgG4 Fc (antibody, V domains shown)
VH: B2 VH
VL: B1 VL with V13A, K45N, T51A, G77S, Q79H, Y87S, Y94F, R96L, Q100G
modifications: human IgG4 Fc
B7: H2aM9222N: anti-APLNR antibody, HCVR/LCVR SEQ ID NOs 34/42, mouse IgG2a Fc (antibody, V domains shown)
VH: B1 VH with S31N, F32Y, V40A, K58R, D62G, D73G, N74D, K76E, F105A
VL: B1 VL with V13A, T51A, G77S
modifications: mouse IgG2a Fc
B8: H2aM9228N: anti-APLNR antibody, HCVR/LCVR SEQ ID NOs 66/74, mouse IgG2a Fc (antibody, V domains shown)
VH: B1 VH with S31N, F32Y, Q39L, V40A, K58R, D62G, D73G, N74D, F105A, Y106F
VL: B1 VL with V13A, T51A, G77S
modifications: mouse IgG2a Fc
B9: H2aM9230N: anti-APLNR antibody, HCVR/LCVR SEQ ID NOs 82/90, mouse IgG2a Fc (antibody, V domains shown)
VH: B1 VH with E46Q, F105V
VL: B1 VL with T51A, P80S, N92K
modifications: mouse IgG2a Fc
B10: H1M9207N: anti-APLNR antibody, HCVR/LCVR SEQ ID NOs 2/10, mouse IgG1 Fc (antibody, V domains shown)
VH: EVQLVESGGGLAQPGGSLRLSCAASGFTFSNYWMSWVRQAPGKGLEWVANIKQDGSEKYYLESVKGRFTISRDNAKNLLYLQMNSLRAEDTAVFYCARPGLLRFLEPGRRYYSGMNVWGQGTTVTVSS
VL: B2 VL with S30R, S85T, F87Y, L91F, N94Y, R96W
modifications: mouse IgG1 Fc

target: T1, hAPLNR (Homo sapiens, UniProt P35414); assay: cyclic AMP (CRE-luciferase) assay, activation of hAPLNR in HEK293/CRE-luc/hAPLNR cells; format: cell-based; details: Table 6A; % of maximum Apelin activation, without Apelin
T1 construct: expressed in transfected cells
T1 sequence (P35414 1-380): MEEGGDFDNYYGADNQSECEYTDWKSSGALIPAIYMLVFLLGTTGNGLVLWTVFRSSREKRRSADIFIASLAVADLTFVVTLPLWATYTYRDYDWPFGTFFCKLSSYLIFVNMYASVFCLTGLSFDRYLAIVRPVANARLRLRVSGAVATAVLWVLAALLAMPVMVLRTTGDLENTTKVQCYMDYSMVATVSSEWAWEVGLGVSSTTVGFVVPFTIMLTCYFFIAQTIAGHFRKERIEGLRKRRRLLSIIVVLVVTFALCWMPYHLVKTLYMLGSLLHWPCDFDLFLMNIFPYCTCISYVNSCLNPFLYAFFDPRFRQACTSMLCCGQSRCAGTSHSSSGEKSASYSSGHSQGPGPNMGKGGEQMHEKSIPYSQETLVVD
Description: The ability of anti-APLNR antibodies to activate hAPLNR-mediated cell signaling was measured using a cyclic AMP assay. The hAPLNR is a 7-transmembrane G-protein coupled receptor (GPCR).
(§1) The resulting cell line, HEK293/CRE-luc/hAPLNR, was maintained in DMEM containing 10% FBS, NEAA, penicillin/streptomycin, and 100 μg/mL Hygromycin B.
(§2) Testing of antibodies included a no antibody control.
(§3) The results of all assays were analyzed using nonlinear regression (4-parameter logistics) within Prism 5 software (GraphPad).

Molecule	% Activation at 100 nM mAb (at 10 uM Forskolin)	% Activation at 100 nM mAb (at 5 uM Forskolin)
B1	12%	
B2		No Activation
B3		No Activation
B4		No Activation
B5		No Activation
B6		No Activation
B7	No Activation	
B8	No Activation	
B9	No Activation	
B10	No Activation	

same assay, conditions: text on Table 6A, without Apelin

Molecule	activation of hAPLNR, % of maximum Apelin activation at 100 nM, the highest antibody dose tested [%]
B1	12

target: T1, hAPLNR; assay: CRE assay of modified apelin peptides in HEK293/CRE-luc/hAPLNR cells; format: cell-based; details: Table 9; 5 μM forskolin
Description: After 5 hours of incubation at 37° C. in 5% CO2, luminescence was measured following the addition of One Glo reagent (Promega, #E6051) using a Victor X instrument (Perkin Elmer). The data were fit by nonlinear regression to a 4-parameter logistic equation with Prism 5 software (GraphPad).

Molecule	EC50 [nM]
PRLSHKGPM [Apelin67-75]	374
CSCC[C@H](NC(=O)[C@@H]1CCCN1C(=O)CNC(=O)[C@H](CCCCN)NC(=O)[C@H](Cc1c[nH]cn1)NC(=O)[C@H](CO)NC(=O)[C@H](CC(C)C)NC(=O)[C@H](CCCNC(=N)N)NC(=O)[C@@H]1CCCN1C(=O)[C@H](CCCNC(=N)N)NC(=O)[C@@H](N)CCC(N)=O)C(=O)N1CCC[C@H]1C(=O)N[C@@H](Cc1ccccc1)C(=O)NCC(=O)NCC(=O)NCC(=O)NCC(=O)NCC(=O)O [Apelin-13 + 5G]	0.147
CSCC[C@H](NC(=O)[C@@H]1CCCN1C(=O)CNC(=O)[C@H](CCCCN)NC(=O)[C@H](Cc1c[nH]cn1)NC(=O)[C@H](CO)NC(=O)[C@H](CC(C)C)NC(=O)[C@H](CCCNC(=N)N)NC(=O)[C@@H]1CCCN1)C(=O)N1CCC[C@H]1C(=O)N[C@@H](Cc1ccccc1)C(=O)O [Apelin-11, reference compound]	0.438
RPRLSHKGPM [Apelin66-75]	0.00217
CSCC[C@H](NC(=O)[C@@H]1CCCN1C(=O)CNC(=O)[C@H](CCCCN)NC(=O)[C@H](Cc1c[nH]cn1)NC(=O)[C@H](CO)NC(=O)[C@H](CC(C)C)NC(=O)[C@H](CCCNC(=N)N)NC(=O)[C@@H]1CCCN1C(=O)[C@@H](N)CCCNC(=N)N)C(=O)N1CCC[C@H]1C(=O)O [Apelin66-76]	0.00519

target: T1, hAPLNR; assay: cyclic AMP (CRE-luciferase) assay, inhibition of hAPLNR in the presence of 100 pM Apelin; format: cell-based; details: Tables 6C and 6D
Description: as §1, §2, §3

Molecule	inhibition (maximum blockade) of 100ρM Apelin activation
B2	did not demonstrate any measurable blockade
B3	did not demonstrate any measurable blockade
B4	did not demonstrate any measurable blockade
B5	did not demonstrate any measurable blockade
B6	did not demonstrate any measurable blockade

test system: HEK293 parental cells; assay: FACS binding to HEK293 parental cells; details: 10 μg/mL antibody
Description: Binding ratios for human APLNR binding to purified anti-APLNR monoclonal antibodies were determined by a fluorescence-activated cell sorting (FACS) binding assay. […] The resulting stable cell lines, HEK293/CRE-luc/hAPLNR and HEK293/CRE-luc/MfAPLNR, were maintained in DMEM containing 10% FBS, NEAA, and penicillin/streptomycin with either 100 μg/mL Hygromycin B for hAPLNR cells or 500 μg/mL G418 for MfAPLNR cells.
For the FACS analysis, HEK293 parental, HEK293/CRE-luc/hAPLNR, and, HEK293/CRE-luc/mfAPLNR cells were dissociated using Enzyme Free Dissociation reagent (#S-004, Millipore, Billerica, Mass., USA) and 10^6 cells/well were plated onto 96-well v-bottom plates in PBS containing 1% FBS. […] Cells were then filtered and analyzed on Accuri Flow Cytometer (BD Biosciences, San Jose, Calif., USA). Unstained and secondary antibody alone controls were also tested for binding to all cell lines. […] Geometric mean (Geom. mean) of fluorescence for each antibody was then normalized to geometric mean of unstained cells to obtain relative binding of antibody (binding ratios) per each cell type: HEK293 (parental), HEK293/CRE-luc/hAPLNR and HEK293/CRE-luc/MfAPLNR.

Molecule	Binding Ratio of Geom. Mean to Unstained Cells, HEK293 Parental
B1	4
B7	2
B8	3
B9	3
B10	4
